Results reported in patent US20220218785A1 (ALPINE IMMUNE SCIENCES, published 2022).
One block for each binder: values may come before it.

Assays:
[1] = biological target: T1, ICOS on CHO cells expressing ICOS (UniProt Q9Y6W8 21-199, limits assumed); assay: flow cytometry on CHO cells expressing ICOS, bound protein detected with anti-human IgG-PE, median fluorescence against [pM]
T1 construct: whole, on cells
T1 sequence (looked up): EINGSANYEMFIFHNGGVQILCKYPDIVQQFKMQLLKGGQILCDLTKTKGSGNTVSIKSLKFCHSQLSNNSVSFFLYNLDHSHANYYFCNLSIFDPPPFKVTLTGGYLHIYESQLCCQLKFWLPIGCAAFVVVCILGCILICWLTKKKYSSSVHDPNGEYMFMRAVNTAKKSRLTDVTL

[2] = biological target: T2, CD28 on CHO cells expressing CD28 (UniProt P10747 19-220, limits assumed); assay: flow cytometry on CHO cells expressing CD28, bound protein detected with anti-human IgG-PE, median fluorescence against [pM]
T2 construct: whole, on cells

rat CTLA-4 = rat CTLA-4 (rat, UniProt Q62859 36-223); assay: flow cytometry, transfected HEK293 cells
Method: (§1) Binding was assessed substantially as described in Example 1 on transfected HEK293 cells generated to express the full-length surface ligands CD28, ICOS or CTLA-4 from human, cynomolgus monkey, rat or mouse. Transfection was carried out using a transient transfection system (Life Technologies, USA). As a control, binding to mock (non-transfected) cells also was assessed.

human ICOS = biological target: T3, human ICOS (human, UniProt Q9Y6W8 21-199); assay: flow cytometry, transfected HEK293 cells
T3 construct: whole, on cells
T3 sequence (looked up): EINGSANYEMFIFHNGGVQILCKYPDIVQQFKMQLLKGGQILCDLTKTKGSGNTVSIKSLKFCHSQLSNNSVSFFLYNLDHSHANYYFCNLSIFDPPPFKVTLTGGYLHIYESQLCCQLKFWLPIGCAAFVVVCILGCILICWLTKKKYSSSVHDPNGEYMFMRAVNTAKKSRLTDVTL
Method: as §1

mouse ICOS = biological target: T4, mouse ICOS (mouse, UniProt Q9WVS0 21-200); assay: flow cytometry, transfected HEK293 cells
T4 construct: whole, on cells
T4 sequence (looked up): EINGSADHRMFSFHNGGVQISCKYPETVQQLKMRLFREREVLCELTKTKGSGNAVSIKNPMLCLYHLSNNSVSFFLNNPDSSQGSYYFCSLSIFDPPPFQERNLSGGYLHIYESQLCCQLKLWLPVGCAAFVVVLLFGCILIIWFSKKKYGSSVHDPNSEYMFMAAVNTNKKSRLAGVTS
Method: as §1

mouse CD28 = biological target: T5, mouse CD28 (mouse, UniProt P31041 20-218); assay: flow cytometry, transfected HEK293 cells
T5 construct: whole, on cells
Method: as §1

cynomolgus monkey ICOS = biological target: T6, cynomolgus monkey ICOS (cynomolgus monkey, UniProt A0A2K5TQR6 21-168); assay: flow cytometry, transfected HEK293 cells
T6 sequence: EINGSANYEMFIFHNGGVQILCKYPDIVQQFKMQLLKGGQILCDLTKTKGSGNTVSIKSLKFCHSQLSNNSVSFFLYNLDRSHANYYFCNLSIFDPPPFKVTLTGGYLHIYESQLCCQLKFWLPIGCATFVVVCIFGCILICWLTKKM
Method: as §1

human CD28 = biological target: T7, human CD28 (human, UniProt P10747 19-220); assay: flow cytometry, transfected HEK293 cells
T7 construct: whole, on cells
Method: as §1

cynomolgus monkey CD28 = biological target: T8, cynomolgus monkey CD28 (cynomolgus monkey, UniProt Q0PDN3 19-220); assay: flow cytometry, transfected HEK293 cells
T8 construct: whole, on cells
Method: as §1

rat ICOS = biological target: T9, rat ICOS (rat, UniProt Q9R1T7 21-200); assay: flow cytometry, transfected HEK293 cells
T9 construct: whole, on cells
T9 sequence (looked up): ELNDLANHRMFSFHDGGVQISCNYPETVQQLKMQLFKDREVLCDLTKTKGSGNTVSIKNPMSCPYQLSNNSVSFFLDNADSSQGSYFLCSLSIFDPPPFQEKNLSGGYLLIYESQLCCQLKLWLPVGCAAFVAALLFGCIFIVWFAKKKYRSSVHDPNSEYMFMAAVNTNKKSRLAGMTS
Method: as §1

rat CD28 = biological target: T10, rat CD28 (rat, UniProt P31042 20-218); assay: flow cytometry, transfected HEK293 cells
T10 construct: whole, on cells
Method: as §1

human CTLA-4 = biological target: T11, human CTLA-4 (human, UniProt P16410 36-223); assay: flow cytometry, transfected HEK293 cells
T11 construct: whole, on cells
Method: as §1

cynomolgus monkey CTLA-4 = biological target: T12, cynomolgus monkey CTLA-4 (cynomolgus monkey, UniProt G7PL88 36-223); assay: flow cytometry, transfected HEK293 cells
T12 construct: whole, on cells
Method: as §1

mouse CTLA-4 = biological target: T13, mouse CTLA-4 (mouse, UniProt P09793 36-223); assay: flow cytometry, transfected HEK293 cells
T13 construct: whole, on cells
Method: as §1

[3] = biological target: T2, CD28 on CHO cells expressing CD28; assay: competition, flow cytometry: competitor labelled CD86 on CHO cells expressing CD28
[4] = biological target: T1, ICOS on CHO cells expressing ICOS; assay: competition, flow cytometry: competitor labelled ICOSL on CHO cells expressing ICOS
[5] = biological target: T2, CD28 on CHO cells expressing CD28; assay: competition, flow cytometry: competitor CD80 on CHO cells expressing CD28
[6] = biological target: T14, human CD28, full-length, on transfected cells (human, UniProt P10747 19-220); assay: flow cytometry on CHO cells expressing CD28, anti-human IgG-PE
T14 construct: whole, on cells; also called CD28 tfxn

[7] = biological target: T15, human ICOS, full-length, on transfected cells (human, UniProt Q9Y6W8 21-199); assay: flow cytometry on CHO cells expressing ICOS, anti-human IgG-PE
T15 construct: whole, on cells; also called ICOS tfxn
T15 sequence (looked up): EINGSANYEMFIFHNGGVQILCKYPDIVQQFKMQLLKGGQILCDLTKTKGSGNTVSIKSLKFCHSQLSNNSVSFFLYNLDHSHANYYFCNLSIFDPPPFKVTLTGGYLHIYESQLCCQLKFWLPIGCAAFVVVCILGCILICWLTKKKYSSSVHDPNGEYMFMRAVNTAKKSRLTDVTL

[8] = biological target: T16, rat CD28, full-length, on transfected HEK293 cells (rat, UniProt P31042 20-218); assay: flow cytometry on transfected HEK293 cells
T16 construct: whole, on cells
Method: (§2) Binding studies were carried out on transfected HEK293 cells generated to express the full-length mammalian (human) surface ligands, CD28, ICOS or CTLA-4, using a transient transfection system (Life Technologies, USA). As a control, binding to mock (non-transfected) cells also was assessed. For staining by flow cytometry, 200,000 cells of appropriate transient transfection or negative control (mock) were plated in 96 well round bottom plates, and, then incubated in staining buffer (PBS, phosphate buffered saline; 1% BSA, bovine serum albumin; and 0.1% sodium azide) for 20 minutes to block non-specific binding. Cells were resuspended in staining buffer containing 100 nM to 1 nM variant immunomodulatory protein in 50 μL. Mean Fluorescence Intensity (MFI) was calculated for each transfectant and negative parental line with Cell Quest Pro software (Becton Dickinson, USA) or a Hypercyt flow cytometer (Intellicyte, USA).
as §1

[9] = biological target: T17, human CTLA-4, full-length, on transfected cells (human, UniProt P16410 36-223); assay: flow cytometry on transfected HEK293 cells
T17 construct: whole, on cells; also called CTLA-4 tfxn
Method: as §2, §1

[10] = biological target: T18, mouse CD28, full-length, on transfected HEK293 cells (mouse, UniProt P31041 20-218); assay: flow cytometry on transfected HEK293 cells
T18 construct: whole, on cells
Method: as §2, §1

[11] = biological target: T19, mouse ICOS, full-length, on transfected HEK293 cells (mouse, UniProt Q9WVS0 21-200); assay: flow cytometry on transfected HEK293 cells
T19 construct: whole, on cells
T19 sequence (looked up): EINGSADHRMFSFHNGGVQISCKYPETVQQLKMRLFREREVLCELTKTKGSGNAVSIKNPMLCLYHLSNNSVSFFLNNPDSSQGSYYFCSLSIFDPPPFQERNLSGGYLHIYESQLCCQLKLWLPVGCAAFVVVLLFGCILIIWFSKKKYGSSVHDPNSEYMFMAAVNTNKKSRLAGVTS
Method: as §2, §1

[12] = biological target: T20, mouse CTLA-4, full-length, on transfected HEK293 cells (mouse, UniProt P09793 36-223); assay: flow cytometry on transfected HEK293 cells
T20 construct: whole, on cells
Method: as §2, §1

[13] = biological target: T21, rat ICOS, full-length, on transfected HEK293 cells (rat, UniProt Q9R1T7 21-200); assay: flow cytometry on transfected HEK293 cells
T21 construct: whole, on cells
T21 sequence (looked up): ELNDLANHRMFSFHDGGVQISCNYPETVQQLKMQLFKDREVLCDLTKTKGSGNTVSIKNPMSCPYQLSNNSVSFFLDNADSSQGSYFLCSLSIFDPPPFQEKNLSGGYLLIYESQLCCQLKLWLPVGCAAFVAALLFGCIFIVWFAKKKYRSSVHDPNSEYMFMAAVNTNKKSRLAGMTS
Method: as §2, §1

[14] = biological target: T22, ICOS receptor loaded onto anti-human capture sensor (ForteBio Octet AHC) (UniProt Q9Y6W8 21-141, limits assumed); assay: ForteBio Octet BLI, receptor on AHC sensor
T22 sequence (looked up): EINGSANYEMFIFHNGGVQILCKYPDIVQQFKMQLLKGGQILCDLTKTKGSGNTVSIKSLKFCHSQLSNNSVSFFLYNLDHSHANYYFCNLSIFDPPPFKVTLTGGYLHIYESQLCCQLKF
Method: (§3) Each titration was globally fit to calculate the association (kₒₙ) and dissociation (Kdis) of each protein. […] The dissociation constant (KD) was calculated and compared to wildtype to determine a fold improvement value (fold imp.).

[15] = biological target: CTLA-4 receptor loaded onto anti-human capture sensor (ForteBio Octet AHC) (UniProt P16410 37-162, limits assumed); assay: ForteBio Octet BLI, receptor on AHC sensor
Method: as §3

[16] = biological target: CD28 receptor loaded onto anti-human capture sensor (ForteBio Octet AHC) (UniProt P10747 19-152); assay: ForteBio Octet BLI, receptor on AHC sensor
Method: as §3

EC50 (read off the curve) [1]: ~3000 pM
EC50 (read off the curve) [2]: ~3000 pM
EC50 (rat CTLA-4): 0.793 nM
EC50 (human ICOS): 0.633 nM
EC50 (mouse ICOS): 1.43 nM
EC50 (mouse CD28): 1.15 nM
EC50 (cynomolgus monkey ICOS): 0.579 nM
EC50 (human CD28): 0.648 nM
EC50 (cynomolgus monkey CD28): 0.44 nM
EC50 (rat ICOS): 1.03 nM
EC50 (rat CD28): 1.06 nM
EC50 (human CTLA-4): 0.68 nM
EC50 (cynomolgus monkey CTLA-4): 0.704 nM
EC50 (mouse CTLA-4): 1.11 nM
IC50 [3]: 0.7 nM
IC50 [4]: 4.3 nM
IC50 [5]: 1 nM
B1: variant ICOSL IgV-Fc (variant ICOSL IgV N52H/N57Y/Q100R, SEQ ID NO: 36, fused to an inert human IgG1 Fc, e.g. SEQ ID NO: 42) (Fc fusion)
chain: DTQEKEVRAMVGSDVELSCACPEGSRFDLNDVYVYWQTSESKTVVTYHIPQHSSLEYVDSRYRNRALMSPAGMLRGDFSLRLFNVTPQDEQKFHCLVLSRSLGFQEVLSVEVTLHVAANFSVEPKSSDKTHTCPPCPAPEAEGAPSVFLFPPKPKDTLMISRTPEVTCVVVDVSHEDPEVKFNWYVDGVEVHNAKTKPREEQYNSTYRVVSVLTVLHQDWLNGKEYKCKVSNKALPAPIEKTISKAKGQPREPQVYTLPPSRDELTKNQVSLTCLVKGFYPSDIAVEWESNGQPENNYKTTPPVLDSDGSFFLYSKLTVDKSRWQQGNVFSCSVMHEALHNHYTQKSLSLSPG
notes: also called variant ICOSL vIgD-Fc fusion molecule

binding result [6]: binds
binding result [7]: binds
binding result [8]: binds
binding result [9]: binds
binding result [10]: binds
binding result [11]: binds
binding result [12]: binds
binding result [13]: binds
B2: variant ICOSL IgV-Fc (N52H/N57Y/Q100R) (Fc fusion)
chain: DTQEKEVRAMVGSDVELSCACPEGSRFDLNDVYVYWQTSESKTVVTYHIPQHSSLEYVDSRYRNRALMSPAGMLRGDFSLRLFNVTPQDEQKFHCLVLSRSLGFQEVLSVEVTLHVAANFSVGGGGSGGGGSEPKSSDKTHTCPPCPAPEAEGAPSVFLFPPKPKDTLMISRTPEVTCVVVDVSHEDPEVKFNWYVDGVEVHNAKTKPREEQYNSTYRVVSVLTVLHQDWLNGKEYKCKVSNKALPAPIEKTISKAKGQPREPQVYTLPPSRDELTKNQVSLTCLVKGFYPSDIAVEWESNGQPENNYKTTPPVLDSDGSFFLYSKLTVDKSRWQQGNVFSCSVMHEALHNHYTQKSLSLSPG
notes: also called variant ICOSL vIgD-Fc fusion molecule; ICOS-IgV Fc (N52H/N57Y/Q100R)

Response [14]: 0.03
Response [15]: 0
Response [16]: -0.04
B3: wildtype PD-L2 ED-Fc fusion molecule (Fc fusion, UniProt Q9BQ51 20-220, looked up)
chain: LFTVTVPKELYIIEHGSNVTLECNFDTGSHVNLGAITASLQKVENDTSPHRERATLLEEQLPLGKASFHIPQVQVRDEGQYQCIIIYGVAWDYKYLTLKVKASYRKINTHILKVPETDEVELTCQATGYPLAEVSWPNVSVPANTSHSRTPEGLYQVTSVLRLKPPPGRNFSCVFWNTHVRELTLASIDLQSQMEPRTHPT
notes: extracellular domain; Control protein in the ForteBio assays; also called PD-L2-Fc; not shown: Fc part and any linker are not described
